The record followed here is patent publication US20220381793A1, “COMPOSITIONS AND METHODS FOR IDENTIFYING MHC-II BINDING PEPTIDES” (priority 2021, published 2022).

For this experiment, the target named is “empty” DR4-LZ (DRA*01:01/DRB1*04:01 ectodomains with Jun/Fos leucine zippers, non-covalent heterodimer displayed on yeast through Aga2p) (human).

With “S862-888 (printed “5862-888”) (from UniProt P0DTC2 862-878) (peptide)”, the % competition amounted to 75%.
